The source of these data is article PMC5481561, “The crystal structure of mammalian inositol 1,3,4,5,6-pentakisphosphate 2-kinase reveals a new zinc-binding site and key features for protein function” (The Journal of Biological Chemistry, 2017).

Substrate in data set [1]: O=P(O)(O)O[C@@H]1[C@@H](OP(=O)(O)O)[C@H](OP(=O)(O)O)[C@H](O)[C@H](OP(=O)(O)O)[C@H]1OP(=O)(O)O
Put plainly: HPLC of IP5-dependent ATP to ADP conversion. The format is biochemical, Mus musculus. Particulars: 50 μM ATP, 1 mM MgCl2, 20 mM Hepes, pH 7.3, 0.2–5 μM IP5.

Substrate in data set [2]: O=P(O)(O)O[C@@H]1[C@@H](OP(=O)(O)O)[C@H](OP(=O)(O)O)[C@H](O)[C@H](OP(=O)(O)O)[C@H]1OP(=O)(O)O
Put plainly: HPLC of IP5-dependent ATP to ADP conversion. It is filed as biochemical, Mus musculus. As to conditions: 50 μM ATP, 1 mM MgCl2, 20 mM Hepes, pH 7.3, 0.2–5 μM IP5. The text has this:
HPLC of IP5-dependent ATP to ADP conversion on LSLt-ΔC-mIP5 2-K | showing very similar kinetic parameters (Fig. 3A)
The source holds these as a separate data set.

B1: LSLt-ΔC-mIP5 2-K (Mus musculus) (protein)
chain: MEEGKMDENEWSYHGEGNKSLVVAHAQRCVVLRFLKFPPNKKKTSEEILQHLQNIVDFGKNVMKDFLGENYVHCGEVVQLPLEFVKQLCLKIQCERPESRCDKDLDTFSGYAMCLPNLTRLQTFHFAEHRPILCVEIKPKCGFIPFSNDVTHEMKHKVCRYCMHQHLKVATGKWKKISKYCPLDLYSGNKQRMHFALRSLLQETQNNLRIFKNGELIYGCGDARSPVADLKELAHHLKPFFFPSNGLASGPHCTKAVIRELVHVITRVLLSSSEKARAGALRLGLQGPRVCEASPFSRSLHNQGKNTSEHSGLPKGCLLYKTLQVQMLDQLDIEGLYPLYKRVEQYLEEFPEERKTLQIDGPYDEVFYQKLLDLSTEDDGTVAFALTKVQQYRVAMTAKDCSIMIALSPCLQGTSSDQRPVIPSSRSRLAFSVSVLDLDLKPYESIPHQYKLDSKIVNYYSKTVHAKD
notes: lacks the 21 C-terminal residues (stop codon at 469); LSLt (Laetiporus sulphureus lectin) tag kept; E. coli BL21 Star (DE3)
Consider B1, for which, in data set [1], the Km was 0.29 µM.

B2: LSLt-ΔC-mIP5 2-K (Mus musculus; K173A) (protein)
chain: MEEGKMDENEWSYHGEGNKSLVVAHAQRCVVLRFLKFPPNKKKTSEEILQHLQNIVDFGKNVMKDFLGENYVHCGEVVQLPLEFVKQLCLKIQCERPESRCDKDLDTFSGYAMCLPNLTRLQTFHFAEHRPILCVEIKPKCGFIPFSNDVTHEMKHKVCRYCMHQHLKVATGAWKKISKYCPLDLYSGNKQRMHFALRSLLQETQNNLRIFKNGELIYGCGDARSPVADLKELAHHLKPFFFPSNGLASGPHCTKAVIRELVHVITRVLLSSSEKARAGALRLGLQGPRVCEASPFSRSLHNQGKNTSEHSGLPKGCLLYKTLQVQMLDQLDIEGLYPLYKRVEQYLEEFPEERKTLQIDGPYDEVFYQKLLDLSTEDDGTVAFALTKVQQYRVAMTAKDCSIMIALSPCLQGTSSDQRPVIPSSRSRLAFSVSVLDLDLKPYESIPHQYKLDSKIVNYYSKTVHAKD
notes: as for B1
For B2, the Km in data set [2] came out at 0.2729 ± 0.0895 µM.
